The assay concerns the target T1, ADGal4/rDr1 fusion protein (Gal4 activation domain fused to rice Dr1, encoded by pADGal4::rDr1) (rice).
T1 construct: Expressed in yeast YRG-2 for the two-hybrid assay; Coding region of rice Dr1 (EcoR I/Sma I fragment) fused in frame
T1 chain: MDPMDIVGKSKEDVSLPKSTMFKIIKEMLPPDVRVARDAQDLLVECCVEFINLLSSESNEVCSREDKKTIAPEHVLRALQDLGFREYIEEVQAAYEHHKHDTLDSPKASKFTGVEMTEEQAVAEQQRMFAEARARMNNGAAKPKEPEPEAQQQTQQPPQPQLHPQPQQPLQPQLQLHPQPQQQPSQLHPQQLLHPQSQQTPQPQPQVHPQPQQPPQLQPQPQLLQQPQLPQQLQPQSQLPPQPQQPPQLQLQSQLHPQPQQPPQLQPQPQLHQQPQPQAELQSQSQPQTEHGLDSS
Put plainly: yeast two-hybrid (Gal4 system, YRG-2), growth on medium lacking Trp, Leu and His. From the text:
USA 88: 9578-9582). The rice Dr1 and DRAP1 cDNAs described in Example 5 were fused with pAD-Gal4 and pBD-Gal4 to generate pADGal4::rDr1 and pBDGal4::rDRAP1 constructs respectively. The EcoR I and Sma I fragment containing coding region of rice Dr1 was cloned into pAD-Gal4 EcoR I and Sma I sites to generate pADGal4::rDr1. The Mfe I and Pst I fragment containing coding region of rice DRAP1 was cloned into pBD-Gal4 EcoR I and Pst I sites to generate pBDGal4::rDRAP1. The pADGal4::rDr1 and pBDGal4::rDRAP1 were transformed independently and co-transformed into Stratagene's YRG-2 yeast strain (Stratagene, San Diego, Calif.). Competent YRG-2 cells were prepared according to the method of Eible (1992) Biotechniques 13:18-20) and transformed with one microgram of DNA added to a […] aliquot of competent yeast cells. A mixture containing 240 PI 50% PEG (MW 3350), 36 μl 1 M lithium acetate, and 50 μg of salmon sperm DNA was added to the yeast-DNA mixture. After mixing the mixture was incubated at 30° C. for 30 minutes and heat shocked at 42° C. for 20 minutes. Maximum of 200 μl of transformation mixture was plated on selective plates. For initial plating transformants containing the pADGal4::rDr1 construct (trp+), were plated on selection medium lacking tryptophan. […]

B1: Truncated rice DRAP1 (N-terminal deletion of 63 amino acids) fused to Gal4 DNA binding domain, encoded by pBDGal4::rDRAP1NN64 (other, not shown: large carriers)
chain: SFHLKQCVRRYSSFDFLTEVVNKVPDLGGADSCGDDRALPRRRKALPNGSDPENEESRSSKMAVRSANISPRGRGRGRGRGRGRPPTKRKEVGYVQFEDESSMFADQGEALPGEETVPETIHGTESVPPSTHPPAEAPSAAEIPAPNPKVEEAKNDDHQPDWPMPDAIGNIGVGPSGFGHLTVQVDEDEDYDNED
notes: Lacks the N-terminal 63 amino acids of rice DRAP1
For the molecule B1, the binding result was “no binding”.
